Reference: US20260263599A1 (AUTOLUS, published 2026)
Changes are numbered by the printed parent chain.

B1: Jovi Hum 8 (antibody, V domains shown)
VH: QVQLVQSGAEVKKPGASVKVSCKASGYTFTGYVMHWVRQAPGQGLEWMGFINPYNDDIQSNERFRGRVTMTRDTSISTAYMELSRLRSDDTAVYYCARGAGYNFDGAYRFFDFWGQGTMVTVSS
VL: DIVMTQSPLSLPVTPGEPASISCRSSQRLVHSNGNTYLHWYLQKPGQSPRLLIYRVSNRFPGVPDRFSGSGSGTDFTLKISRVEAEDVGVYYCSQSTHVPYTFGQGTKLEIK
notes: also called H-AF 1; humanised antibody with H-AF062256 VH and 3aaz VL
B2: Jovi Hum 26 (antibody, V domains shown)
VH: B1 VH with V20M, R72S, T74K
VL: B1 VL
notes: also called H-AF 12
B3: Jovi Hum 18 (antibody, V domains shown)
VH: B1 VH with R72S, T74K
VL: B1 VL
notes: also called H-AF 4
B4: Jovi Hum 16 (antibody, V domains shown)
VH: B1 VH with T74K
VL: B1 VL
notes: also called H-AF 2
B5: Jovi Hum 27 (antibody, V domains shown)
VH: B1 VH with V20M, M48I
VL: B1 VL
notes: also called H-AF 13
B6: Jovi Hum 17 (antibody, V domains shown)
VH: B1 VH with R72S
VL: B1 VL
notes: also called H-AF 3
B7: Jovi Hum 21 (antibody, V domains shown)
VH: B1 VH with M48I, R72S
VL: B1 VL
notes: also called H-AF 7
B8: Jovi Hum 19 (antibody, V domains shown)
VH: B1 VH with M48I
VL: B1 VL
notes: also called H-AF 5
B9: Jovi Hum 20 (antibody, V domains shown)
VH: B1 VH with M48I, T74K
VL: B1 VL
notes: also called H-AF 6

Molecular target: T1, T Cell Receptor Beta Constant 2 (TRBC2) (human, UniProt A0A5B9 1-144, limits assumed)
T1 construct: ELISA antigen; also called TCR beta constant region 2
Assay: ELISA

T1 sequence (A0A5B9 1-144 limits assumed): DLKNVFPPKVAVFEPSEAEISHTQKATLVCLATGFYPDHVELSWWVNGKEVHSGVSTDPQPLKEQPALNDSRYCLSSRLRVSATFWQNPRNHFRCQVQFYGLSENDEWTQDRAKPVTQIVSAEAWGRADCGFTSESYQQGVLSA

| Binder | binding result |
| --- | --- |
| B1 | no binding |
| B2 | no binding |
| B3 | no binding |
| B4 | no binding |
| B5 | no binding |
| B6 | no binding |
| B7 | no binding |
| B8 | no binding |
| B9 | no binding |
